The Immune Epitope Database (IEDB)

What was measured:
HLA-A*02:01 = experiment: IEDB peptide-MHC binding, purified MHC/competitive/radioactivity; filed as Kd, often an IC50 or EC50 that approximates it; ≥ and ≤ were set here for values at or beyond the usual limits of such assays
HLA-A*02:06 = experiment: as above
HLA-A*02:17 = experiment: as above
HLA-B*15:17 = experiment: IEDB peptide-MHC binding, purified MHC/direct/fluorescence; filed as Kd, often an IC50 or EC50 that approximates it; ≥ and ≤ were set here for values at or beyond the usual limits of such assays
HLA-B*57:01 = experiment: as above
HLA-B*58:01 [1] = experiment: as above; details: source organism: Vibrio parahaemolyticus
HLA-B*58:01 [2] = experiment: IEDB peptide-MHC binding, purified MHC/competitive/radioactivity; filed as Kd, often an IC50 or EC50 that approximates it; ≥ and ≤ were set here for values at or beyond the usual limits of such assays
HLA-B*48:01 = experiment: IEDB peptide-MHC binding, purified MHC/direct/fluorescence; filed as Kd, often an IC50 or EC50 that approximates it; ≥ and ≤ were set here for values at or beyond the usual limits of such assays
HLA-A*02:03 = experiment: IEDB peptide-MHC binding, purified MHC/competitive/radioactivity; filed as Kd, often an IC50 or EC50 that approximates it; ≥ and ≤ were set here for values at or beyond the usual limits of such assays
HLA-B*18:01 = experiment: as above
HLA-B*40:01 = experiment: as above
HLA-B*40:02 = experiment: as above
HLA-B*44:02 = experiment: as above
HLA-B*44:03 = experiment: as above
HLA-B*45:01 = experiment: as above
HLA-B*27:05 = experiment: IEDB peptide-MHC binding, purified MHC/direct/fluorescence; filed as Kd, often an IC50 or EC50 that approximates it; ≥ and ≤ were set here for values at or beyond the usual limits of such assays; details: source organism: Francisella tularensis subsp. holarctica LVS
HLA-B*46:01 = experiment: as above; details: source organism: Dengue virus
HLA-A*30:02 = experiment: IEDB peptide-MHC binding, purified MHC/competitive/radioactivity; filed as Kd, often an IC50 or EC50 that approximates it; ≥ and ≤ were set here for values at or beyond the usual limits of such assays; details: source organism: Dengue virus 2 Jamaica/1409/1983
HLA-B*08:01 = experiment: as above; details: source organism: Dengue virus 3 Martinique/1243/1999
HLA-B*35:01 = experiment: as above
HLA-B*53:01 = experiment: as above
HLA-A*68:01 = experiment: as above
HLA-A*33:01 = experiment: as above; details: source organism: Dengue virus 2 Jamaica/1409/1983
HLA-B*51:01 = experiment: as above; details: source organism: Dengue virus 1 Brazil/97-11/1997
[3] = source organism: Dengue virus 1 Singapore/S275/1990
[4] = source organism: Dengue virus 1 Brazil/97-11/1997
[5] = source organism: Vibrio parahaemolyticus
[6] = source organism: Dengue virus 2 Jamaica/1409/1983
[7] = source organism: Mammarenavirus machupoense
[8] = source organism: Dengue virus 3 China/80-2/1980
[9] = source organism: Mammarenavirus guanaritoense
[10] = source organism: Dengue virus 3 Sri Lanka/1266/2000
[11] = source organism: SARS coronavirus Tor2
[12] = source organism: Dengue virus 2 Thailand/NGS-C/1944
[13] = source organism: Dengue virus 3 Singapore/8120/1995
[14] = source organism: Dengue virus 4 Dominica/814669/1981
[15] = source organism: Yellow fever virus

FMNEDHWFS gave a Kd (HLA-A*02:01; [3]) of 9.76 nM, a Kd (HLA-A*02:06; [4]) of 270 nM and a Kd (HLA-A*02:17; [3]) of 244 nM.
Work on TVIPFYFVW yielded a Kd (HLA-B*15:17; [5]) of 6.8 nM, a Kd (HLA-B*57:01; [5]) of 275 nM and a Kd (HLA-B*58:01 [1]) of 41.3 nM.
VASEMAEALK showed a Kd (HLA-B*58:01 [2]; [4]) of no less than 10000 nM.
KPYMAMSAL was tested, and the Kd (HLA-B*48:01; source organism: Salmonella enterica subsp. enterica serovar Typhimurium) was 541 nM.
In the case of KLFMALVAFL, the Kd (HLA-A*02:01; [6]) is reported as 46.6 nM, the Kd (HLA-A*02:03; [6]) is reported as 3.35 nM and the Kd (HLA-A*02:17; [6]) is reported as 51.8 nM.
SDHLISEML gave a Kd (HLA-B*18:01; [7]) of no less than 77500 nM, a Kd (HLA-B*40:01; [7]) of no less than 22400 nM and a Kd (HLA-B*40:02; [7]) of 217 nM. It also gave a Kd (HLA-B*44:02; [7]) of 12200 nM, a Kd (HLA-B*44:03; [7]) of no less than 31700 nM and a Kd (HLA-B*45:01; [7]) of 17200 nM.
RSVALVPHV was tested, and the Kd (HLA-B*58:01 [2]; [6]) was 8.81 nM.
KRLSVNQKY was tested, and the Kd (HLA-B*27:05) was 62.2 nM and the Kd (HLA-B*48:01; source organism: Francisella tularensis subsp. holarctica LVS) was no less than 20000 nM.
Work on KLQLKGMSY yielded a Kd (HLA-B*46:01) of no less than 20000 nM and a Kd (HLA-A*30:02) of 131 nM.
Sequence LLLMRTSWAL has a Kd (HLA-A*02:01; [8]) of 5.52 nM, a Kd (HLA-A*02:06; source organism: Dengue virus 3 Martinique/1243/1999) of 13.3 nM and a Kd (HLA-A*02:17; [8]) of 15.3 nM. The Kd (HLA-B*08:01) was 1.47 nM.
IDFLIMRNL gave a Kd (HLA-B*18:01; [9]) of 15200 nM, a Kd (HLA-B*40:01; [9]) of 15500 nM and a Kd (HLA-B*40:02; [9]) of 224 nM. For the same sequence, the Kd (HLA-B*44:02; [9]) was 14500 nM, the Kd (HLA-B*44:03; [9]) was 16100 nM and the Kd (HLA-B*45:01; [9]) was 18000 nM.
With RPASAWTLY the Kd (HLA-B*35:01; [6]) was 83.6 nM and the Kd (HLA-B*53:01; [6]) was 87.5 nM.
For FTNMEAQLVR, the Kd (HLA-A*68:01; [10]) was 79.2 nM and the Kd (HLA-B*35:01; [10]) was 11800 nM.
Work on FENKTTLPV yielded a Kd (HLA-B*18:01; [11]) of 666 nM, a Kd (HLA-B*40:01; [11]) of 115 nM and a Kd (HLA-B*40:02; [11]) of 25.3 nM. For the same sequence, the Kd (HLA-B*44:02; [11]) was 17100 nM, the Kd (HLA-B*44:03; [11]) was 1870 nM and the Kd (HLA-B*45:01; [11]) was 851 nM.
For TLMAMDLGEL, the Kd (HLA-A*02:01; [12]) was 14.5 nM, the Kd (HLA-A*02:03; source organism: Dengue virus 2 Peru/IQT2913/1996) was 8.36 nM and the Kd (HLA-A*02:17; [12]) was 273 nM.
In the case of FTNMEAQLIR, the Kd (HLA-A*33:01) is reported as 108 nM, the Kd (HLA-A*68:01; [6]) is reported as 19.3 nM and the Kd (HLA-B*35:01; [6]) is reported as 9880 nM.
TLTAAVLLLV was tested, and the Kd (HLA-A*02:03; [13]) was 5.74 nM and the Kd (HLA-A*02:17; [13]) was 219 nM.
In the case of ALSEGVYRI, the Kd (HLA-A*02:01; [14]) is reported as 2.88 nM, the Kd (HLA-A*02:03; [14]) is reported as 17.3 nM and the Kd (HLA-A*02:17; [14]) is reported as 172 nM.
For KLEKASLIEV, the Kd (HLA-A*02:17; [8]) was 1140 nM.
KEINLLSQT gave a Kd (HLA-B*18:01; [7]) of no less than 77500 nM, a Kd (HLA-B*40:01; [7]) of no less than 34100 nM and a Kd (HLA-B*40:02; [7]) of 31.1 nM. It also gave a Kd (HLA-B*44:02; [7]) of 17000 nM, a Kd (HLA-B*44:03; [7]) of 14300 nM and a Kd (HLA-B*45:01; [7]) of 6690 nM.
PDFNSLISI gave a Kd (HLA-B*18:01; [7]) of no less than 77500 nM, a Kd (HLA-B*40:01; [7]) of 15800 nM and a Kd (HLA-B*40:02; [7]) of 813 nM. The Kd (HLA-B*44:02; [7]) was no less than 26600 nM, the Kd (HLA-B*44:03; [7]) was no less than 78100 nM and the Kd (HLA-B*45:01; [7]) was no less than 77700 nM.
Sequence YAQMWQLMYF has a Kd (HLA-B*35:01; [4]) of 964 nM, a Kd (HLA-B*51:01) of 19400 nM and a Kd (HLA-B*53:01; [4]) of 81 nM.
Sequence EEVVENPTI has a Kd (HLA-B*18:01; [11]) of no less than 45600 nM, a Kd (HLA-B*40:01; [11]) of 2730 nM and a Kd (HLA-B*40:02; [11]) of 4880 nM. For the same sequence, the Kd (HLA-B*44:02; [11]) was 4540 nM, the Kd (HLA-B*44:03; [11]) was 778 nM and the Kd (HLA-B*45:01; [11]) was 1220 nM.
In the case of IILEFFLMV, the Kd (HLA-A*02:06; [4]) is reported as 1.78 nM and the Kd (HLA-A*02:17; source organism: Dengue virus 4 Philippines/H241/1956) is reported as 182 nM.
With RRDKRSVAL the Kd (HLA-B*48:01; source organism: Dengue virus) was 153 nM.
LAVMGDAAW was tested, and the Kd (HLA-B*15:17; [15]) was 27 nM and the Kd (HLA-B*57:01; [15]) was 35.5 nM.
Work on TELEPPCRF yielded a Kd (HLA-B*18:01; [11]) of 892 nM, a Kd (HLA-B*40:01; [11]) of no less than 28500 nM and a Kd (HLA-B*40:02; [11]) of 14000 nM. The Kd (HLA-B*44:02; [11]) was 99 nM, the Kd (HLA-B*44:03; [11]) was 62.9 nM and the Kd (HLA-B*45:01; [11]) was 12100 nM.
NDNFLMRNV showed a Kd (HLA-B*18:01; [7]) of no less than 76700 nM, a Kd (HLA-B*40:01; [7]) of no less than 76100 nM and a Kd (HLA-B*40:02; [7]) of 2120 nM. For the same sequence, the Kd (HLA-B*44:02; [7]) was 9960 nM, the Kd (HLA-B*44:03; [7]) was no less than 42500 nM and the Kd (HLA-B*45:01; [7]) was no less than 77500 nM.
